IntAct's records for PubMed 9355745

B1: Tyrosine-protein phosphatase non-receptor type 1 (Homo sapiens), P18031 (parent)
chain: MEMEKEFEQIDKSGSWAAIYQDIRHEASDFPCRVAKLPKNKNRNRYRDVSPFDHSRIKLHQEDNDYINASLIKMEEAQRSYILTQGPLPNTCGHFWEMVWEQKSRGVVMLNRVMEKGSLKCAQYWPQKEEKEMIFEDTNLKLTLISEDIKSYYTVRQLELENLTTQETREILHFHYTTWPDFGVPESPASFLNFLFKVRESGSLSPEHGPVVVHCSAGIGRSGTFCLADTCLLLMDKRKDPSSVDIKKVLLEMRKFRMGLIQTADQLRFSYLAVIEGAKFIMGDSSVQDQWKELSHEDLEPPPEHIPPPPRPPKRILEPHNGKCREFFPNHQWVKEETQEDKDCPIKEEKGSPLNAAPYGIESMSQDTEVRSRVVGGSLRGAQAASPAKGEPSLPEKDEDHALSYWKPFLVNMCVATVLTAGAYLCYRFLFNSNT

Variants of: B1
Settings: with pgfrb_human PDGFRB

| effect of a mutation on the interaction | Variant |
| --- | --- |
| increasing interaction | MEMEKEFEQIDKSGSWAAIYQDIRHEASDFPCRVAKLPKNKNRNRYRDVSPFDHSRIKLHQEDNDYINASLIKMEEAQRSYILTQGPLPNTCGHFWEMVWEQKSRGVVMLNRVMEKGSLKCAQYWPQKEEKEMIFEDTNLKLTLISEDIKSYYTVRQLELENLTTQETREILHFHYTTWPDFGVPESPASFLNFLFKVRESGSLSPEHGPVVVHSSAGIGRSGTFCLADTCLLLMDKRKDPSSVDIKKVLLEMRKFRMGLIQTADQLRFSYLAVIEGAKFIMGDSSVQDQWKELSHEDLEPPPEHIPPPPRPPKRILEPHNGKCREFFPNHQWVKEETQEDKDCPIKEEKGSPLNAAPYGIESMSQDTEVRSRVVGGSLRGAQAASPAKGEPSLPEKDEDHALSYWKPFLVNMCVATVLTAGAYLCYRFLFNSNT [C215S] |
